Holding throughout (experiment): SPOT array
Test [1] deals with T1, Yfr024 SH3 (LSB3_YEAST), P43603.
T1 chain: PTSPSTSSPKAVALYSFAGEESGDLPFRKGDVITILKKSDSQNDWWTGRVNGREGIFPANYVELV

In test [2] the target is Sho1 SH3 (SHO1_YEAST), P40073.
Test [3] has as its target T2, Myo5 SH3 (MYO5_YEAST), Q04439.
T2 chain: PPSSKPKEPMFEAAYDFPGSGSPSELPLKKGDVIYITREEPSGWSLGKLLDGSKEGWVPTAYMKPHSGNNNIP

Test [4] has as its target T3, Yhr016c SH3 (YSC84_YEAST), P32793.
T3 chain: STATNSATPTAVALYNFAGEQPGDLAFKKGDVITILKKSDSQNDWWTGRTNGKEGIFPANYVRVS

The target in test [5] is T4, Boi1 SH3 (BOI1_YEAST), P38041.
T4 chain: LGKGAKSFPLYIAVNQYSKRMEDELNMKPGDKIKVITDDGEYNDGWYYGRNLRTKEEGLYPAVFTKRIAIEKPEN

The target in test [6] is T5, Boi2 SH3 (BOI2_YEAST), P39969.
T5 chain: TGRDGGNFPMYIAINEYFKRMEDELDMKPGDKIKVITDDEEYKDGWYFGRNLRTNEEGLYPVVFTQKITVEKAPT

The target in test [7] is T6, Rvs167 SH3 (RV167_YEAST), P39743.
T6 chain: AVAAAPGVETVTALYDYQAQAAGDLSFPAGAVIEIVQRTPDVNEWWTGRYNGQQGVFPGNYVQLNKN

Sho1 SH3 (SHO1_YEAST), P40073, sequence (P40073 295-366): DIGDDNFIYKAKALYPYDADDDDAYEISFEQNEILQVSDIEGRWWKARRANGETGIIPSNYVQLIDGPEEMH

B1: YDR377W 34-47 (peptide)
chain: VHFYKSLPQGPAPA
Take B1: the normalised SPOT signal, Boehringer light units (BLU); mean over the file's lines of this peptide in test [1] turned out to be 90.7; in test [2], 5350; in test [3], 510; in test [4], 21.8; in test [5] it was 49.8; in test [6], 44.6. The molecule also came in with a normalised SPOT signal, Boehringer light units (BLU); mean over the file's lines of this peptide in test [7] of 25.6.

B2: YOR151C 910-923 (peptide)
chain: VIIGKTTPISPDEE
In the case of B2, the normalised SPOT signal, Boehringer light units (BLU); mean over the file's lines of this peptide was 0 in test [1]; 36.1 in test [2]; 54 in test [3]; 6.3 in test [4]; 0 in test [5]; 19.8 in test [6]. This molecule displayed a normalised SPOT signal, Boehringer light units (BLU); mean over the file's lines of this peptide in test [7] of 32.9.

B3: YDR436W 385-398 (peptide)
chain: VEMKRKKPVRPVDI
Take B3: the normalised SPOT signal, Boehringer light units (BLU); mean over the file's lines of this peptide in test [1] turned out to be 2590; in test [2], 66.9; in test [3], 472; in test [4] it was 152; in test [5], 1610; in test [6], 48.2. In test [7], this molecule yielded a normalised SPOT signal, Boehringer light units (BLU); mean over the file's lines of this peptide of 64.

B4: YGL097W 70-83 (peptide)
chain: VKRPRLNPFLPRDE
Take B4: the normalised SPOT signal, Boehringer light units (BLU); mean over the file's lines of this peptide was 2420 in test [1]; 119 in test [2]; 1190 in test [3]; 348 in test [4]; 135000 in test [5]; 2400 in test [6]. This molecule displayed a normalised SPOT signal, Boehringer light units (BLU); mean over the file's lines of this peptide in test [7] of 4070.

B5: YDL028C 400-413 (peptide)
chain: VFYHRPAPKPPVTK
Take B5: the normalised SPOT signal, Boehringer light units (BLU); mean over the file's lines of this peptide came out at 156 in test [1]; 267 in test [2]; 9050 in test [3]; 95 in test [4]; 879 in test [5]; 29.2 in test [6]. In test [7], this molecule had a normalised SPOT signal, Boehringer light units (BLU); mean over the file's lines of this peptide of 90.2.

B6: YMR239C 193-206 (peptide)
chain: VKATKWPPKLPEIQ
For the molecule B6, the normalised SPOT signal, Boehringer light units (BLU); mean over the file's lines of this peptide amounted to 43.6 in test [1]; 25.7 in test [2]; 57.4 in test [3]; 49.9 in test [4]; 170 in test [5]; 0.8 in test [6]. Also, the normalised SPOT signal, Boehringer light units (BLU); mean over the file's lines of this peptide in test [7] stood at 9.9.

B7: YMR108W 643-656 (peptide)
chain: VEVDKKVPVLPMVA
On to B7, for which the normalised SPOT signal, Boehringer light units (BLU); mean over the file's lines of this peptide in test [1] was determined as 98.7; in test [2], 30.9; in test [3], 130; in test [4], 43.3; in test [5], 107; in test [6] it was 31.8. Besides, the normalised SPOT signal, Boehringer light units (BLU); mean over the file's lines of this peptide in test [7] stood at 180.

B8: YPL059W 48-61 (peptide)
chain: VLFMKGTPEFPKSG
For B8, the normalised SPOT signal, Boehringer light units (BLU); mean over the file's lines of this peptide was found to be 666 in test [1]; 51.5 in test [2]; 213 in test [3]; 128 in test [4]; 151 in test [5]; 108 in test [6]. Besides, the normalised SPOT signal, Boehringer light units (BLU); mean over the file's lines of this peptide in test [7] worked out at 267.

B9: YDR301W 1194-1207 (peptide)
chain: VHVLKYAPDEPNSL
On to B9, for which the normalised SPOT signal, Boehringer light units (BLU); mean over the file's lines of this peptide in test [1] came out at 3.3; in test [2] it was 19.6; in test [3], 191; in test [4], 25.5; in test [5], 104; in test [6], 29.5. The molecule also gave a normalised SPOT signal, Boehringer light units (BLU); mean over the file's lines of this peptide in test [7] of 34.4.

B10: YCR030C 726-739 (peptide)
chain: VLTVKMSPSLPDEI
In the case of B10, the normalised SPOT signal, Boehringer light units (BLU); mean over the file's lines of this peptide is 444 in test [1]; 49.5 in test [2]; 230 in test [3]; 20.6 in test [4]; 173 in test [5]; 28.2 in test [6]. The normalised SPOT signal, Boehringer light units (BLU); mean over the file's lines of this peptide in test [7] is 4.4.

B11: YOL155C 384-397 (peptide)
chain: VFVEKSKPTYPGTE
Turning to B11, the normalised SPOT signal, Boehringer light units (BLU); mean over the file's lines of this peptide amounted to 0 in test [1]; 81 in test [2]; 96.4 in test [3]; 22.1 in test [4]; 51.6 in test [5]; 19.2 in test [6]. Besides, the normalised SPOT signal, Boehringer light units (BLU); mean over the file's lines of this peptide in test [7] came out at 64.7.

B12: YPR104C 435-448 (peptide)
chain: VKKEKKPPKIPKKV
In the case of B12, the normalised SPOT signal, Boehringer light units (BLU); mean over the file's lines of this peptide was found to be 782 in test [1]; 71.6 in test [2]; 534 in test [3]; 32.9 in test [4]; 1300 in test [5]; 8.9 in test [6]. Moreover, the normalised SPOT signal, Boehringer light units (BLU); mean over the file's lines of this peptide in test [7] was determined as 71.6.

B13: YER093C 584-597 (peptide)
chain: VLKIKPLPYKPRGR
In the case of B13, the normalised SPOT signal, Boehringer light units (BLU); mean over the file's lines of this peptide in test [1] amounted to 426; in test [2], 3410; in test [3], 647; in test [4], 27.3; in test [5], 1590; in test [6], 34.8. Moreover, in test [7], the normalised SPOT signal, Boehringer light units (BLU); mean over the file's lines of this peptide worked out at 25.

B14: YNL163C 601-614 (peptide)
chain: VLGPKYDPKSPEEH
Turning to B14, the normalised SPOT signal, Boehringer light units (BLU); mean over the file's lines of this peptide in test [1] is -0; in test [2] it was 45.5; in test [3], 157; in test [4], 22.7; in test [5], 28.8; in test [6], 1.9. In test [7], this molecule yielded a normalised SPOT signal, Boehringer light units (BLU); mean over the file's lines of this peptide of 12.7.

These data come from publication PMC314469, “Protein Interaction Networks by Proteome Peptide Scanning” (PLoS Biology, 2004).
